# From patent publication US20220143136A1, “USE OF ANNEXINS IN PREVENTING AND TREATING MUSCLE MEMBRANE INJURY” (NORTHWESTERN UNIVERSITY, priority 2018, published 2022)
# Entries after “also recorded” stand apart in the source; their conditions may differ.
# B1: annexin A6: annexin A6 with carboxyl-terminal turboGFP or tdTomato tag, expressed from plasmid electroporated into myofibers (protein, UniProt P14824 2-673, looked up)
# Annexin A6: AKIAQGAMYRGSVHDFPEFDANQDAEALYTAMKGFGSDKESILELITSRSNKQRQEICQNYKSLYGKDLIEDLKYELTGKFERLIVNLMRPLAYCDAKEIKDAISGVGTDEKCLIEILASRTNEQMHQLVAAYKDAYERDLESDIIGDTSGHFQKMLVVLLQGTRENDDVVSEDLVQQDVQDLYEAGELKWGTDEAQFIYILGNRSKQHLRLVFDEYLKTTGKPIEASIRGELSGDFEKLMLAVVKCIRSTPEYFAERLFKAMKGLGTRDNTLIRIMVSRSELDMLDIREIFRTKYEKSLYSMIKNDTSGEYKKALLKLCGGDDDAAGQFFPEAAQVAYQMWELSAVSRVELKGTVCAANDFNPDADAKALRKAMKGIGTDEATIIDIVTHRSNAQRQQIRQTFKSHFGRDLMADLKSEISGDLARLILGLMMPPAHYDAKQLKKAMEGAGTDEKTLIEILATRTNAEIRAINEAYKEDYHKSLEDALSSDTSGHFRRILISLATGNREEGGENRDQAQEDAQVAAEILEIADTPSGDKTSLETRFMTVLCTRSYPHLRRVFQEFIKKTNYDIEHVIKKEMSGDVKDAFVAIVQSVKNKPLFFADKLYKSMKGAGTDEKTLTRVMVSRSEIDLLNIRREFIEKYDKSLHQAIEGDTSGDFMKALLALCGGED
# modifications: C-terminal turboGFP or tdTomato tag
# notes: annexin A6 with carboxyl-terminal turboGFP or tdTomato tag, expressed from plasmid electroporated into myofibers
# B2: recombinant annexin A6: recombinant human annexin A6 protein with C-terminal HIS tag (5186-A6-050, R&D systems); mouse protein from Northwestern core in one cohort (protein, UniProt P08133 2-673, looked up)
# Annexin A6: AKPAQGAKYRGSIHDFPGFDPNQDAEALYTAMKGFGSDKEAILDIITSRSNRQRQEVCQSYKSLYGKDLIADLKYELTGKFERLIVGLMRPPAYCDAKEIKDAISGIGTDEKCLIEILASRTNEQMHQLVAAYKDAYERDLEADIIGDTSGHFQKMLVVLLQGTREEDDVVSEDLVQQDVQDLYEAGELKWGTDEAQFIYILGNRSKQHLRLVFDEYLKTTGKPIEASIRGELSGDFEKLMLAVVKCIRSTPEYFAERLFKAMKGLGTRDNTLIRIMVSRSELDMLDIREIFRTKYEKSLYSMIKNDTSGEYKKTLLKLSGGDDDAAGQFFPEAAQVAYQMWELSAVARVELKGTVRPANDFNPDADAKALRKAMKGLGTDEDTIIDIITHRSNVQRQQIRQTFKSHFGRDLMTDLKSEISGDLARLILGLMMPPAHYDAKQLKKAMEGAGTDEKALIEILATRTNAEIRAINEAYKEDYHKSLEDALSSDTSGHFRRILISLATGHREEGGENLDQAREDAQVAAEILEIADTPSGDKTSLETRFMTILCTRSYPHLRRVFQEFIKMTNYDVEHTIKKEMSGDVRDAFVAIVQSVKNKPLFFADKLYKSMKGAGTDEKTLTRIMVSRSEIDLLNIRREFIEKYDKSLHQAIEGDTSGDFLKALLALCGGED
# modifications: C-terminal His tag
# notes: recombinant human annexin A6 protein with C-terminal HIS tag (5186-A6-050, R&D systems); mouse protein from Northwestern core in one cohort
# What was measured:
# Type in all cases: cell-based, mouse
# myofibers = experiment: Annexin repair cap formation after laser injury at multiple Ca2+ concentrations; settings: fluorescently tagged annexin expressed in myofibers; Ca2+ 0-2 mM; modified Hill equation
# Procedure: (§1) Electroporation, myofiber isolation, laser injury, cap and vesicle measurement. Flexor digitorum brevis (FDB) fibers were transfected with endo-free plasmid DNA by in vivo electroporation. Methods were described previously in (Demonbreun and McNally, 2015; Demonbreun et al., 2016b; DiFranco et al., 2009). Z-stack projections were acquired from consecutive acquisitions after the final time-lapse frame, approximately 4 minutes post damage, with a […] step size between slices. Z-stack renderings were constructed in FIJI. Measurement of the cap area and feret diameter were conducted from a single slice near the middle of the z-stack using FIJI imaging tools. Fibers expressing similar levels of tagged or GCaMP5G protein were compared. GCaMP5G Ca^2+ fluorescence was measured from the acquired timelapse images, using a standard rectangular ROI, placed inside the myofiber below the site of damage using FIJI. Fluorescence was expressed as F/F0. External vesicle number and GCaMP5G area were measured from endpoint z-stacks and max projection images using FIJI. Vesicles were considered external if they were found outside the sarcolemma assessed in brightfield and fluorescent channels. All measurements were acquired from myofibers isolated from at least n≥3 mice, n≥3 myofibers per mouse.
# Calcium kinetics. FDB muscle was electroporated and isolated as described above. Myofibers were damaged in Ringers solution with Ca^2+ concentrations of 2 mM, 1 mM, 0.5 mM, 0.25 mM, 0.175 mM, 0.1 mM, 0.050 mM, and 0 mM. EDTA was added as a Ca^2+ chelating agent in only in the 0 mM Ca^2+ Ringers. Myofibers were isolated directly into 2 mM, 1 mM and 0.5 mM Ringers for those experiments respectively. For experiments using less than 0.5 mM Ca^2+ myofibers were isolated in 0.5 mM Ca^2+ Ringers and then diluted with 0 mM EDTA-free Ca^2+ Ringers. For 0 mM experiments, myofibers were isolated in 0.5 mM Ca^2+ Ringers and then replaced with 0 mM Ca^2++EDTA Ringers just prior to imaging. Co-electroporation of wildtype annexin+wildtype annexin constructs was performed in one mouse foot, while the contralateral foot was co-electroporated with wildtype annexin+mutant annexin. All measurements were acquired from myofibers isolated from at least n≥2 mice, n≥3 myofibers per mouse at each Ca^2+ concentration. Area-Ca^2+ curves were fitted with a Hill Curve at Ca^2+ concentrations ranging from 0-2 mM. Kinetic parameters were calculated using Prism Graphpad.
# as §1, with “(Demonbreun A R, Quattrocelli M, Barefield D Y, Allen M V, Swanson K E,” for “(Demonbreun”, “McNally E M. An actin-dependent annexin complex mediates plasma membrane repair in muscle. The Journal of cell biology. 2016; 213(6):705-18; Demonbreun A R, and McNally E M. DNA Electroporation, Isolation and Imaging of Myofibers. Journal of visualized experiments: JoVE.” for “McNally,”, “106(106):e53551;” for “Demonbreun et al., 2016b;”, “M, Quinonez M, Capote J, and Vergara J. DNA transfection of mammalian skeletal muscles using in vivo electroporation. Journal of visualized experiments: JoVE. 2009; 32(32)).” for “et al., 2009).”, “Vesicles were considered external if they were found outside the sarcolemma assessed in brightfield and fluorescent channels. All measurements were acquired from myofibers isolated from at least n≥3 mice, n≥3 myofibers per mouse.” left out
# [1] = test system: dysferlin-null (Dysf129) myofibers; experiment: Laser-induced membrane injury, FM 4-64 dye uptake, dysferlin-null myofibers; settings: LGMD2B model
# Procedure: Myofiber isolation. Flexor digitorum brevis (FDB) fibers were isolated with methods that were described previously in (Demonbreun and McNally, 2015; Demonbreun et al., 2016b; DiFranco et al., 2009). Briefly, fibers were dissociated in 0.2% BSA plus collagenase type II (Cat #17101, Thermo Fisher Scientific, Waltham, Mass.) for 60 minutes at 37 degrees in 10% CO2. Fibers were then moved to Ringers solution and placed on MatTek confocal microscopy dishes (Cat #P35G-1.5-14-C, MatTek, Ashland Mass.).
# Multiphoton laser injury and imaging. Isolated fibers were subjected to laser-induced damage at room temperature using the Nikon A1R-MP multiphoton microscope. Imaging was performed using a 25×1.1 NA objective directed by the NIS-Elements AR imaging software. Green fluorescence protein (GFP) and FM 4-64 were excited using a 920 nm wavelength laser and emission wavelengths of 575 nm and 629 nm were collected respectively. […] Fluorescence intensity and cap area were measured using Fiji (NIH).
# For recombinant protein studies, myofibers were isolated from mice as described above. […] Cap size was assessed from acquired images in FIJI. […] Images were acquired and quantitated as described above. FM 4-64 fluorescence at endpoint was measured using FIJI.
# wildtype myofibers = experiment: Laser-induced membrane injury, FM 4-64 dye uptake; settings: for FM 4-64 fluorescence area / dye uptake after laser injury: extracellular recombinant protein vs vehicle control
Molecule,Km1/2 (repair cap area as a function of Ca2+ concentration) (myofibers),FM 4-64 dye uptake after laser injury ([1]; plasmid overexpression of annexin A6 vs control),FM 4-64 dye uptake after laser-induced injury (wildtype myofibers; plasmid overexpression of annexin A6-GFP vs mock electroporated control),FM 4-64 fluorescence area after laser injury ([1]; extracellular recombinant protein vs vehicle control),FM 4-64 fluorescence area / dye uptake after laser injury (wildtype myofibers),FM 4-64 fluorescence area / dye uptake after laser injury (wildtype myofibers; listed as rANXA6)
B1,0.12 mM,significant reduction; also recorded: reduced,decreased; also recorded: reduced,,,
B2,,,,reduced; also recorded: decreased,reduced,significantly smaller; also recorded: significantly less
